The text below walks through data of patent publication US20190309094A1.

The target in experiment [1] is CD3 on Jurkat luciferase reporter cells (Homo sapiens (Human)) (UniProt P07766). In words: flow cytometry on Jurkat_NFAT_Luc2P cells, PE-A; histogram shifted to about 10^4.
The target of experiment [2] is hCD3εγ chains (human) (UniProt P07766). In words: ELISA on hCD3εγ chains, curve fit.
Experiment [3] has the same target. In words: ELISA on hCD3εγ chains, curve fit (unit from the axis).
Experiment [4] addresses CD3 on Jurkat luciferase reporter cells (Homo sapiens (Human)) (UniProt P07766). In words: flow cytometry on Jurkat_NFAT_Luc2P cells, control staining in all three panels.
Experiment [5] shares this target. In words: flow cytometry on Jurkat_NFAT_Luc2P cells, FITC-A; histogram shifted to between 10^3 and 10^4.

Sequence of UCHT1 (antibody) (V domain): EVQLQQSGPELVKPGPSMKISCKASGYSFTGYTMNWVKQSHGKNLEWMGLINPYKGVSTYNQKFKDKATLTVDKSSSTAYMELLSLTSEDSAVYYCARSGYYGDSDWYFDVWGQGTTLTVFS
Sequence of UCHT1 (antibody) (VL): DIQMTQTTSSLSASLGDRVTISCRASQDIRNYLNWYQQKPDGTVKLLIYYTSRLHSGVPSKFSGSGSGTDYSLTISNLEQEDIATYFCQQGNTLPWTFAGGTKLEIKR

For Commercial CD3e(HiT3a) (antibody), the Fold (fold over hIgG) in experiment [1] came out at 58.
In turn, UCHT1 (antibody) gave a Bmax with hCD3εγ chains (human) [2] of 1.52 OD 450 nm. In the experiment with hCD3εγ chains (human) [3], this substance had a Kd of 33.3 nM.
In the case of hIgG (antibody), the Fold (fold (reference)) in experiment [4] was 1.
In the case of mOKT3 (antibody), in experiment [5], the Fold (fold over hIgG) stood at 45.
